Target: trypsin from porcine pancreas (porcine) (UniProt P00761)
UniProt P00761, sequence (P00761 9-231): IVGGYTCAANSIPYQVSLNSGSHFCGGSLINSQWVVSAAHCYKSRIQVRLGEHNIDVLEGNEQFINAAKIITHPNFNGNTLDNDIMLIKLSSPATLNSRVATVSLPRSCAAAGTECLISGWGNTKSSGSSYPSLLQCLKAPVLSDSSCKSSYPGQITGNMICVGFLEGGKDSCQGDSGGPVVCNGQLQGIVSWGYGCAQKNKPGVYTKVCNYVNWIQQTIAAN

B1: Bowman Birk inhibitor (BBI) from soybean (natural protein)
chain: DDESSKPCCDQCACTKSNPPQCRCSDMRLNSCHSACKSCICALSYPAQCFCVDITDFCYEPCKPSEDDKEN
B1 gave an IC50 of inhibition of trypsin activity (cleavage of the Arg6-Cys peptide, read by fluorescence of dC12-AgNCs-peptide/GO at 635 nm; 37 °C, 20 min, 2.0 mM phosphate buffer pH 7.4) of 3.6 ng∙mL^−1.

— PMC5134428
